Bridges are numbered along the chain shown (N, C = ends). Primed or numbered codes have the meaning given here. Where no end group is shown, it is not given here. The star is where a group is joined. DSS = disuccinimidyl suberate, reactive NHS group, O=C(CCCCCCC(=O)*)ON1C(=O)CCC1=O; DSG = disuccinimidyl glutarate, reactive NHS group, O=C(CCCC(=O)*)ON1C(=O)CCC1=O; Biotin = O=C1N[C@H]2[C@H](CS[C@H]2CCCCC(=O)*)N1; PEG4′ = not defined here
Key:
bovine serum albumin = target: T1, bovine serum albumin (bovine, UniProt P02769 25-607); assay: ELISA, BSA used as blocking agent, biotinylated peptide detected with SA-HRP
T1 construct: also called BSA
T1 sequence (P02769 25-607 limits assumed): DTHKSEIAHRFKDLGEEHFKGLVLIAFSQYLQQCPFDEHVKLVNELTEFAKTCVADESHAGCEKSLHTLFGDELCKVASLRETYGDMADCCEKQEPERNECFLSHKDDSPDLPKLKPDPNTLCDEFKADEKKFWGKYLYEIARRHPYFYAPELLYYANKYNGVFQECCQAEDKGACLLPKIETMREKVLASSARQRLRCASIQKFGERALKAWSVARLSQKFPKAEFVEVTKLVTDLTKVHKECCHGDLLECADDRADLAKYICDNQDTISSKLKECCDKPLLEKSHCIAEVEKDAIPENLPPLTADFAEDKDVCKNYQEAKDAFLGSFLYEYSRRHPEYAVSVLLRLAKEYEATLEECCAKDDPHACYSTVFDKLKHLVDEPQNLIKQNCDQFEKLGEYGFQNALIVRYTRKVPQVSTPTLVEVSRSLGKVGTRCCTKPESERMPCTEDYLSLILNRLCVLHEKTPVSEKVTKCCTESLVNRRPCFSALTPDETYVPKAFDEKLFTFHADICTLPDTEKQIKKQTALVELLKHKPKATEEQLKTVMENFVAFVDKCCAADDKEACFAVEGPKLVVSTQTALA

human serum albumin = target: T2, human serum albumin (human, UniProt P02768 25-609); assay: covalent labeling reaction, SDS-PAGE and Western blotting with SA-conjugated HRP
T2 construct: also called HSA; HAS

human IgG Fc = target: T3, human IgG Fc (human, UniProt P01857-1 108-330 = IgG part); assay: X-ray crystallography of the Fc/IgG-binding peptide conjugate
T3 construct: domain: Fc; also called human IgG1 Fc

| binding result (human serum albumin) | binding result (human IgG Fc) | Binder | binding result (bovine serum albumin) |
| --- | --- | --- | --- |
| no binding | – | {Biotin-PEG4′}-GDDCAYHK(DSS)GELVWCTFH-NH2 (disulfide 4-14, also called DSS R8K) [N-terminally biotin-PEG4-added IgG-binding peptide (Type I(R8K)) modified with DSS] | no binding (tested: molar ratio up to 10) |
| – | binds | GXDCAYHRGELVWCTXH-NH2 (disulfide 4-14, 2-16; not fully specified (residues 2, 16); printed as G(HC)DCAYHRGELVWCT(HC)H-NH2) [cyclic homocysteine peptide G(HC)DCAYHRGELVWCT(HC)H-NH2] | – |
| no binding | – | {Biotin-PEG4′}-GDDCAYHK(DSG)GELVWCTFH-NH2 (disulfide 4-14, also called labeled reagent peptide) [N-terminally biotin-PEG4-added IgG-binding peptide (Type I(R8K)) modified with DSG] | – |
